Measured values taken from PMC4854733 (The Journal of Experimental Medicine, 2016).

Columns and labels:
[1] = biological target: the molecule itself; experiment: negative-stain electron microscopy
[2] = biological target: the molecule itself; experiment: SEC
[3] = biological target: the molecule itself; experiment: fluorescence polarisation

B1: ASC^CARD-SUMO (domain or fragment)
chain: AAKPGLHFIDQHRAALIARVTNVEWLLDALYGKVLTDEQYQAVRAEPTNPSKMRKLFSFTPAWNWTCKDLLLQALRESQSYLVEDLERS
binding result [1]: binds

B2: GFP-ASC^CARD (domain or fragment)
chain: AAKPGLHFIDQHRAALIARVTNVEWLLDALYGKVLTDEQYQAVRAEPTNPSKMRKLFSFTPAWNWTCKDLLLQALRESQSYLVEDLERS
binding result [2]: binds

B3: fluorescently labeled ASC^CARD-SUMO (domain or fragment)
chain: AAKPGLHFIDQHRAALIARVTNVEWLLDALYGKVLTDEQYQAVRAEPTNPSKMRKLFSFTPAWNWTCKDLLLQALRESQSYLVEDLERS
modifications: fluorophore joined by sortase at the C-terminal sortase motif
binding result [3]: binds
